Laboratory results taken from publication PMC10397247.
Blank lines part the entries; values can stand above or below the binder they belong to.

What was measured:
4H1899-bN = molecular target: T1, 4H1899-bN; test: two-hybrid library CCNG1;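 also: natural log of median RNA to DNA barcode read ratio; higher means stronger binding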
T1 chain: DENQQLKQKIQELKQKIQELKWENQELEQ

4H584-bN = molecular target: T2, 4H584-bN; test: two-hybrid library CCNG1;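 also: natural log of median RNA to DNA barcode read ratio; higher means stronger binding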
T2 chain: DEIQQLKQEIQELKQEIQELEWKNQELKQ

4H3414-bN = molecular target: T3, 4H3414-bN; test: two-hybrid library CCNG1;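 also: natural log of median RNA to DNA barcode read ratio; higher means stronger binding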
T3 chain: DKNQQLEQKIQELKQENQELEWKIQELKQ

4H3974-bN = molecular target: T4, 4H3974-bN; test: two-hybrid library CCNG1;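 also: natural log of median RNA to DNA barcode read ratio; higher means stronger binding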
T4 chain: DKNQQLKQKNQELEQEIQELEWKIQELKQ

4H1710-bN = molecular target: T5, 4H1710-bN; test: two-hybrid library CCNG1;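 also: natural log of median RNA to DNA barcode read ratio; higher means stronger binding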
T5 chain: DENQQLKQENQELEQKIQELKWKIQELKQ

4H570-bN = molecular target: T6, 4H570-bN; test: two-hybrid library CCNG1;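 also: natural log of median RNA to DNA barcode read ratio; higher means stronger binding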
T6 chain: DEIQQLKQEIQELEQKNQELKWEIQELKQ

4H906-bN = molecular target: T7, 4H906-bN; test: two-hybrid library CCNG1
T7 chain: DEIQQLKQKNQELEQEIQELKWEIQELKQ

4H3817-bN = molecular target: T8, 4H3817-bN; test: two-hybrid library CCNG1
T8 chain: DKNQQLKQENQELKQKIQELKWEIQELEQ

4H619-bN = molecular target: T9, 4H619-bN; test: two-hybrid library CCNG1
T9 chain: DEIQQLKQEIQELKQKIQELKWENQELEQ

4H1629-bN = molecular target: T10, 4H1629-bN; test: two-hybrid library CCNG1
T10 chain: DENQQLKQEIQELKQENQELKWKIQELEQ

4H3129-bN = molecular target: T11, 4H3129-bN; test: two-hybrid library CCNG1
T11 chain: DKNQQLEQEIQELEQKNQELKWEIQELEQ

4H1449-bN = molecular target: T12, 4H1449-bN; test: two-hybrid library CCNG1
T12 chain: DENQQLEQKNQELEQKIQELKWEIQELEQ

4H1544-bN = molecular target: T13, 4H1544-bN; test: two-hybrid library CCNG1
T13 chain: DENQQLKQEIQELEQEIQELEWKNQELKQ

4H3858-bN = molecular target: T14, 4H3858-bN; test: two-hybrid library CCNG1
T14 chain: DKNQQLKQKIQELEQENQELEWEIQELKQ

4H3638-bN = molecular target: T15, 4H3638-bN; test: two-hybrid library CCNG1
T15 chain: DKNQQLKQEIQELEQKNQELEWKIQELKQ

4H1804-bN = molecular target: T16, 4H1804-bN; test: two-hybrid library CCNG1
T16 chain: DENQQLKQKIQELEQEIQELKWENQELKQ

4H3628-bN = molecular target: T17, 4H3628-bN; test: two-hybrid library CCNG1
T17 chain: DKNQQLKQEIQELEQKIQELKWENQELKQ

4H1985-bN = molecular target: T18, 4H1985-bN; test: two-hybrid library CCNG1
T18 chain: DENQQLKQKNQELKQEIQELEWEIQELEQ

4H3613-bN = molecular target: T19, 4H3613-bN; test: two-hybrid library CCNG1
T19 chain: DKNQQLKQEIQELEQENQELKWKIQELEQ

4H3631-bN = molecular target: T20, 4H3631-bN; test: two-hybrid library CCNG1
T20 chain: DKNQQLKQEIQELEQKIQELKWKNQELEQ

4H850-bN = molecular target: T21, 4H850-bN; test: two-hybrid library CCNG1
T21 chain: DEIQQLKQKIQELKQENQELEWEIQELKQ

4H3172-bN = molecular target: T22, 4H3172-bN; test: two-hybrid library CCNG1
T22 chain: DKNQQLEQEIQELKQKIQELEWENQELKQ

4H3592-bN = molecular target: T23, 4H3592-bN; test: two-hybrid library CCNG1
T23 chain: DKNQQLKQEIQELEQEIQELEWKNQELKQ

4H3601-bN = molecular target: T24, 4H3601-bN; test: two-hybrid library CCNG1
T24 chain: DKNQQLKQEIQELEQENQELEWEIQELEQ

4H3907-bN = molecular target: T25, 4H3907-bN; test: two-hybrid library CCNG1
T25 chain: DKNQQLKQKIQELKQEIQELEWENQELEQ

4H4038-bN = molecular target: T26, 4H4038-bN; test: two-hybrid library CCNG1
T26 chain: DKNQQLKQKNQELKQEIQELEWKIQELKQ

4H2586-bN = molecular target: T27, 4H2586-bN; test: two-hybrid library CCNG1
T27 chain: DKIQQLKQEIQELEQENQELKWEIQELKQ

4H2839-bN = molecular target: T28, 4H2839-bN; test: two-hybrid library CCNG1
T28 chain: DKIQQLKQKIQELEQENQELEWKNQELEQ

4H3438-AA = molecular target: T29, 4H3438-AA; test: two-hybrid library CCmax; conditions: mean of both orientations
T29 chain: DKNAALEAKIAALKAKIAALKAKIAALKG

4H_GCN4 = test: two-hybrid library CCmax
4H3073-AA = molecular target: T30, 4H3073-AA; test: two-hybrid library CCmax; conditions: mean of both orientations
T30 chain: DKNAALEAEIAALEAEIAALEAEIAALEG

4H_BCR = molecular target: T31, 4H_BCR; test: two-hybrid library CCmax; conditions: mean of both orientations
T31 chain: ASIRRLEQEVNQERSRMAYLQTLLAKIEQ

4H2330-AA = molecular target: T32, 4H2330-AA; test: two-hybrid library CCmax; conditions: mean of both orientations
T32 chain: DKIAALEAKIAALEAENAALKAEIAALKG

4H2732-AA = molecular target: T33, 4H2732-AA; test: two-hybrid library CCmax; conditions: mean of both orientations
T33 chain: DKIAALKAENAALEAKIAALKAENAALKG

4H3015-AA = molecular target: T34, 4H3015-AA; test: two-hybrid library CCmax; conditions: mean of both orientations
T34 chain: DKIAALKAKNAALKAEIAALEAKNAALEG

4H1930-AA = molecular target: T35, 4H1930-AA; test: two-hybrid library CCmax; conditions: mean of both orientations
T35 chain: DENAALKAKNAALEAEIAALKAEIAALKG

4H2165-AA = molecular target: T36, 4H2165-AA; test: two-hybrid library CCmax; conditions: mean of both orientations
T36 chain: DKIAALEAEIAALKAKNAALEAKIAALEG

4H2774-AA = molecular target: T37, 4H2774-AA; test: two-hybrid library CCmax; conditions: mean of both orientations
T37 chain: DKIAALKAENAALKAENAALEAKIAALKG

4H452-AA = molecular target: T38, 4H452-AA; test: two-hybrid library CCmax; conditions: mean of both orientations
T38 chain: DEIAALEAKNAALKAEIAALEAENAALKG

4H2253-AA = molecular target: T39, 4H2253-AA; test: two-hybrid library CCmax; conditions: mean of both orientations
T39 chain: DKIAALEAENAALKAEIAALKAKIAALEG

4H2466-AA = molecular target: T40, 4H2466-AA; test: two-hybrid library CCmax; conditions: mean of both orientations
T40 chain: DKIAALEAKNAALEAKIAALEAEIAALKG

4H2124-AA = molecular target: T41, 4H2124-AA; test: two-hybrid library CCmax; conditions: mean of both orientations
T41 chain: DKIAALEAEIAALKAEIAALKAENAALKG

4H2592-AA = molecular target: T42, 4H2592-AA; test: two-hybrid library CCmax; conditions: mean of both orientations
T42 chain: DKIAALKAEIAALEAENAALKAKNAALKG

4H56-AA = molecular target: T43, 4H56-AA; test: two-hybrid library CCmax; conditions: mean of both orientations
T43 chain: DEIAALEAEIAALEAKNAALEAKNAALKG

4H2343-AA = molecular target: T44, 4H2343-AA; test: two-hybrid library CCmax; conditions: mean of both orientations
T44 chain: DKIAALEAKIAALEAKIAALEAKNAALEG

4H3001-AA = molecular target: T45, 4H3001-AA; test: two-hybrid library CCmax
T45 chain: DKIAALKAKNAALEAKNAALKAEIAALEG

4H406-AA = molecular target: T46, 4H406-AA; test: two-hybrid library CCmax; conditions: mean of both orientations
T46 chain: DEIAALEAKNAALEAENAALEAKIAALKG

4H1821-AA = molecular target: T47, 4H1821-AA; test: two-hybrid library CCmax
T47 chain: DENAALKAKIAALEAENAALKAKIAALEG

4H347-AA = molecular target: T48, 4H347-AA; test: two-hybrid library CCmax; conditions: mean of both orientations
T48 chain: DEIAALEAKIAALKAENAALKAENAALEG

4H249-AA = molecular target: T49, 4H249-AA; test: two-hybrid library CCmax; conditions: mean of both orientations
T49 chain: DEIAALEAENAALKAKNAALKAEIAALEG

4H_APH = molecular target: T50, 4H_APH; test: two-hybrid library CCmax; conditions: mean of both orientations
T50 chain: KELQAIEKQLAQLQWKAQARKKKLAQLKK

4H1828-AA = molecular target: T51, 4H1828-AA; test: two-hybrid library CCmax; conditions: mean of both orientations
T51 chain: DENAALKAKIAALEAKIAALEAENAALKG

4H2931-AA = molecular target: T52, 4H2931-AA; test: two-hybrid library CCmax; conditions: mean of both orientations
T52 chain: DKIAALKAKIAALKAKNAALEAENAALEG

GCN2_T = test: two-hybrid library CCmax; conditions: mean of both orientations

4H_GCN4, sequence (chain, as listed by the source): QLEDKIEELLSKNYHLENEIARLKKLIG

interaction score (4H1899-bN): -0.773 | interaction score (4H584-bN): -0.471 | interaction score (4H3414-bN): -0.742 | interaction score (4H3974-bN): 1.15 | interaction score (4H1710-bN): -0.246 | interaction score (4H570-bN): -0.581 | interaction score (4H906-bN): -1.69 | interaction score (4H3817-bN): -1.76 | interaction score (4H619-bN): -0.984 | interaction score (4H1629-bN): -0.745 | interaction score (4H3129-bN): -2.48 | interaction score (4H1449-bN): -0.847 | interaction score (4H1544-bN): -1.72 | interaction score (4H3858-bN): -0.776 | interaction score (4H3638-bN): -1.08 | interaction score (4H1804-bN): -2.5 | interaction score (4H3628-bN): -0.461 | interaction score (4H1985-bN): -1.29 | interaction score (4H3613-bN): -1.42 | interaction score (4H3631-bN): -0.391 | interaction score (4H850-bN): -1.83 | interaction score (4H3172-bN): -0.588
Binder: DENQQLEQKNQELEQKIQELKWEIQELEQ [4H1449-bN]

interaction score (4H3592-bN): -0.397 | interaction score (4H3601-bN): -0.0551 | interaction score (4H3907-bN): -1.47 | interaction score (4H4038-bN): -0.372
Binder: DKNQQLKQEIQELEQEIQELEWKNQELKQ [4H3592-bN]

interaction score (4H584-bN): -0.0341 | interaction score (4H3414-bN): -0.735 | interaction score (4H3974-bN): -0.785 | interaction score (4H1710-bN): -0.768 | interaction score (4H570-bN): -2.4 | interaction score (4H2586-bN): -1.65 | interaction score (4H906-bN): -1.39 | interaction score (4H3817-bN): -2.51 | interaction score (4H619-bN): -0.476 | interaction score (4H1629-bN): 1.42 | interaction score (4H3129-bN): -0.732 | interaction score (4H3638-bN): -1.43 | interaction score (4H1804-bN): -2.35 | interaction score (4H2839-bN): -1.72 | interaction score (4H1985-bN): -0.575 | interaction score (4H3631-bN): -0.59 | interaction score (4H850-bN): -0.949 | interaction score (4H3172-bN): -0.119
Binder: DENQQLKQEIQELKQENQELKWKIQELEQ [4H1629-bN]

interaction score (4H3438-AA): -1.77 | interaction score (4H_GCN4): -1.85 | interaction score (4H3073-AA): -1.15 | interaction score (4H_BCR): -1.69 | interaction score (4H2330-AA): -0.746 | interaction score (4H2732-AA): -1.04 | interaction score (4H3015-AA): -1.83 | interaction score (4H1930-AA): -1.43 | interaction score (4H2165-AA): -1.28 | interaction score (4H2774-AA): -1.53 | interaction score (4H452-AA): -1.25 | interaction score (4H2253-AA): -0.989 | interaction score (4H2466-AA): -1.51 | interaction score (4H2124-AA): -1.19 | interaction score (4H2592-AA): -1.24 | interaction score (4H56-AA): -1.44 | interaction score (4H2343-AA): -1.42 | interaction score (4H3001-AA): -1.51 | interaction score (4H406-AA): -1.34 | interaction score (4H1821-AA): 1.48 | interaction score (4H347-AA): -1.26 | interaction score (4H249-AA): -1.68 | interaction score (4H_APH): -2.19 | interaction score (4H1828-AA): -2.13 | interaction score (4H2931-AA): -1.77 | interaction score (GCN2_T): -1.68
Binder: DENAALKAKIAALEAENAALKAKIAALEG [4H1821-AA]
